Reference: paper PMC7062800

What was measured:
[1] = test system: RdhK Hybrid B (Desulfitobacterium hafniense DCB-2 (chimera)); assay: EMSA; conditions: 200 uM Cl-OHPA; EMSA: 100 ng DNA, 2 uM protein, 200 uM effector, 15 uL; buffer 100 mM Tris-HCl pH 8.5, 40% glycerol, 10 mM MgCl2, 500 mM NaCl, 5 mM EDTA, 10 mM DTT …
[2] = test system: RdhK Hybrid A (Desulfitobacterium hafniense DCB-2 (chimera)); assay: EMSA; conditions: 200 uM Cl-OHPA; EMSA: 100 ng DNA, 2 uM protein, 200 uM effector, 15 uL; buffer 100 mM Tris-HCl pH 8.5, 40% glycerol, 10 mM MgCl2, 500 mM NaCl, 5 mM EDTA, 10 mM DTT …

| Sequence | binding signal [1] [% DNA bound] | binding signal [2] [% DNA bound] |
| --- | --- | --- |
| GAATTCTCAGGCGATGTAACCGCTTTCAAATTTAGTATACGCTAAATATCTTAACAATGTGATAGCTATGATTGCACCG (double strand) [mgl-DB8] | 100 | 100 |
| GAATTCTCAGGCGATGTAACCGCTTTCAAAGTTAATACACATTAATACTCTTAACAATGTGATAGCTATGATTGCACCG (double strand) [mgl-DB7] | – | 90 |
